According to publication PMC3018548 (Archives of biochemistry and biophysics, 2010):

Target: the molecule itself
Assay: protein concentration dependence of fluorimetric metal uptake kinetics

B1: Escherichia coli apo-manganese superoxide dismutase (wt apo-MnSOD) (enzyme, UniProt P00448 1-206, looked up)
chain: MSYTLPSLPYAYDALEPHFDKQTMEIHHTKHHQTYVNNANAALESLPEFANLPVEELITKLDQLPADKKTVLRNNAGGHANHSLFWKGLKKGTTLQGDLKAAIERDFGSVDNFKAEFEKAAASRFGSGWAWLVLKGDKLAVVSTANQDSPLMGEAISGASGFPIMGLDVWEHAYYLKFQNRRPDYIKEFWNVVNWDEAAARFAAKK
- Kd: 6.6 ± 0.9 µM
